# Measured values as given in patent US20220204643A1 (published 2022).
# B1: TOVA1005 (antibody, V domains shown)
# VH: QITLKESGPTLVKPTQTLTLTCTFSGFSLSTNGVGVGWIRQPPGKALEWLALINWDDDKRYSPSLKSRLTITKDTSKNQVVLTMTNLDPVDTATYYCVHARDDYGDSAWSTGPVWGQGTLVTVSS
# VL: DFLLTQPHSVSESPGKTVTISCTRSSGSIASNYVQWYQQRPGSSPSTVIYEDHQRPSGVPGRFSGSIDSSSNSASLTISGLKTEDEADYFCQSSDSNNHVVFGGGTKLTVLG
# notes: VH/VL tied via antigen in summary, not by name in this stretch
# B2: TOVA1007 (antibody, V domains shown)
# VH: PVQLQESGPGLVNPSQTLSLTCTVSGGSISSGGYCWSWVRQHPGKGLEWIGCIYYIGTTYYMRSLKSRLIISIDTSKNQFSLKLTSVTAADSAVYYCARGGELLGGFGYSGMDVWGQGTTVTVSS
# VL: not shown
# notes: as for B1
# B3: TPRO1001 (antibody, V domains shown)
# VH: EVQLVQSGAEVKKPGESLRISCKGSGYSFTSFWISWVRQMPGKGLEWMGRIDPSDSYTNYSPSFQGHVTISADKSISTAFLQWSSLKASDTAMYYCARHQQKYSPISPLDYWGQGTLVTVSS
# VL: QSALTQPASVSGSPGQSITISCTGTSSDVGGYNYVSWYQQHPGKAPKLMIYDVSNRPSGVSNRFSGSKSGNTASLTISGLQAEDEADYYCSSYTSSSSLVFGGGTKVTVLG
# notes: as for B1
# B4: TPAN1001 (antibody, V domains shown)
# VH: QVQLVQSGAEVKKPGSSVKVSCKASRGTFSNHAVSWVRQAPGQGLEWVGGIIPVFGPPNYAQKFRGRVTITADRSTNTAYMELNSLRSEDTAVYYCARTQWGTDVEATNPYYYFMDVWGKGTTVTVSS
# VL: EIVLTQSPGTLSLSPGHRATLSCRASQDVASTYLAWYQQKPGQAPRLLIYGASSRATGIPDRFSGSGSGTDFTLTISRLEPEDFAVFYCQYYGGSPGFTFGPGTKVDFKR
# notes: as for B1
# B5: TPAN1003 (antibody, V domains shown)
# VH: QVQLVQSGAEVKKPGASVKISCQAFGYNFIDNAIHWVRQAPGQRPEWMGWINAGNGNTRYSQNFQGRVTITKVTSASTAYMEMSRLKSEDTAVYFCARSSKWTDWHFDYWGQGTLVTVSS
# VL: EIVLTQSPGTLSLSPGETATLSCRASQSVANNYLAWHQQKPGQAPRLLIYGASKRAAGIPDRFSGSGSGTEFTLTISRLEPEDCAVYYCQEYVKSPGFAFGPGTRVDIKR
# notes: as for B1
# B6: TPAN1007 (antibody, V domains shown)
# VH: PVQLVQSGAEVKKPGESLKISCQGSGYNFSRYWIGWVRQMPGKGLEWMGVVFPGDSDIRYSLSFQGHITIYADNSISTAYLQWSSLKASDTAIYYCATTSTMPMPTRGRDWFDPWGQGTLVTVSS
# VL: PSVLTQPPSVSGAPGQRVTISCTGSSSNIGAGYDVHWYQQLPGTAPKLLIYANTNRPSGVPDRFSGSKSGTSASLAITGLQAEDEADYYCQSYDNSLSGGVFGGGTKLTVLG
# notes: as for B1
# B7: TPAN1006 (antibody, V domains shown)
# VH: QVQLVQSGAEVKKPGASVKLSCKPSGYTFSSYYIHWLRQAPGQGLEWMGIINPSGGYTSSAQKFQGRVTMTRDTSTSTIYMELSSLRAEDTAVYYCARRGEVGTMVRVFRKPFDYWGQGTLVTVSS
# VL: QSVLTQPPSVSGAPGQRVTISCTGSSSNIGAQYDVHWYKVIPGTAPKLLIYGNDNRPSGVPDRFSGSKSGTSASLAITGLQSEDEADYYCQSNDISLSGSVVFGGGTKLTVLG
# notes: as for B1
# B8: TPAN1004 (antibody, V domains shown)
# VH: QIQLVQSGAEVKKPGASVKVSCKTSGYTFTHYGVAWVRQAPGQGPEWMGWISPYNGNIEYGQKFQGRVTMTTDTSTNTAYMELRSLRYDDTAVYYCARDLDEINSSWLDPWGQGTLIIVSP
# VL: EIVLTQSPATLSLSPGERATLSCRASQSVSSNYLAWYQQKPGQAPRLLIHGASSRATGFPDRFSGSGSGTDFTLTINRLEPEDFAVYYCQQYGTSPQTFGQGTKVEIKR
# notes: as for B1
# B9: TBRE1006 (antibody, V domains shown)
# VH: QVQLVQSGAEVKKPGASVKVSCKASGYIFTSYAIHWVRQAPGQRLEWMGWINAGNGNTKYSQKFQGRVTITRDTSANTAYMELSSLRSEDTAIYYCARDIAVAITNYFGSWGQGTLVTVSS
# VL: EIVLTQSPATLSLSPGERATLSCRASQSVGSYLAWYQQKPGQAPRLLIYDASNRATGIPARFSGSGSGTDFTLTISSLEPEDFAVYYCQQGSNWLALTFGGGTKVEIKR
# notes: VH/VL only
# Legend:
# DEAD-box helicase 53 = target: T1, DEAD-box helicase 53 (human, UniProt Q86TM3 1-631); experiment: protein array
# T1 construct: on protein array; also called DDX53
# T1 sequence (Q86TM3 other isoform, or with tags, fused parts or gaps limits assumed): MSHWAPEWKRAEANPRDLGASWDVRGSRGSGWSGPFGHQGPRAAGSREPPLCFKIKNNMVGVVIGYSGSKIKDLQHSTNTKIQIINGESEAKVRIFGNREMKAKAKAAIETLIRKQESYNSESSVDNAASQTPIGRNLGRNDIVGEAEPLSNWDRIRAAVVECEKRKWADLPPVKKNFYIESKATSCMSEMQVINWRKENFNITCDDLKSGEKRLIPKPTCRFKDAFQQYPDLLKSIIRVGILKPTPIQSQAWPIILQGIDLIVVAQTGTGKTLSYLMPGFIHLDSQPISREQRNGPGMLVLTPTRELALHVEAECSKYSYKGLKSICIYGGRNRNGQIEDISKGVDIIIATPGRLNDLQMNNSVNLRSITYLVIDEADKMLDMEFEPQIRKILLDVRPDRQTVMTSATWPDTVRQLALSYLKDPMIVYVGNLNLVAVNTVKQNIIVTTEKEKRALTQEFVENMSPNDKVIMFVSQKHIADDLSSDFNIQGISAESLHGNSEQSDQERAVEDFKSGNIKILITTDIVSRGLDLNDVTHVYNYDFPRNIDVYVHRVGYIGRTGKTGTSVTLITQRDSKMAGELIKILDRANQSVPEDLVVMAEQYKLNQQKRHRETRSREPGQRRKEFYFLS
# [1] = target: T2, Vezatin, adherens junctions transmembrane protein (human, UniProt Q9HBM0 56-779 at identity 0.99)); experiment: protein array
# T2 construct: on protein array; also called VEZT
# T2 chain: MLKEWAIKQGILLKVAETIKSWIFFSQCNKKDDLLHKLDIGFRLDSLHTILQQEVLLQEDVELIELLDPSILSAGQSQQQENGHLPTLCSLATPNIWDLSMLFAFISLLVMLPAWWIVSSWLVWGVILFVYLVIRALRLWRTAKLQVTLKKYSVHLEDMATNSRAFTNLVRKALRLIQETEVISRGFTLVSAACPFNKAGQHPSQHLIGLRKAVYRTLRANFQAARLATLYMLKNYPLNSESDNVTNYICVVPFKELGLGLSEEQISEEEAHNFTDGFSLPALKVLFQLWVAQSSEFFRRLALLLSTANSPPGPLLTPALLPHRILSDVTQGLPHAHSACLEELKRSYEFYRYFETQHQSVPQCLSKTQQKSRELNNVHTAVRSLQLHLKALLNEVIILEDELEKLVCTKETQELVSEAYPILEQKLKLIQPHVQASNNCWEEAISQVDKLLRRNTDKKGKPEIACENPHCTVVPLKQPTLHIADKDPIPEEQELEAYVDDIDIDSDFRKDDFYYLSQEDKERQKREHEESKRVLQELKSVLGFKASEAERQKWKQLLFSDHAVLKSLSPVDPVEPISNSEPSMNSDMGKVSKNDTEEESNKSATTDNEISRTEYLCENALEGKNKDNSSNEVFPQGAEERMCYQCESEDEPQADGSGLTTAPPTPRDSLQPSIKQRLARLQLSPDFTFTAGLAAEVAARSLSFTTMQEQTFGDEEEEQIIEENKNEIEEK
# [2] = target: T3, nudix hydrolase 22, transcript variant 2 (human, UniProt Q9BRQ3 1-303); experiment: protein array
# T3 construct: on protein array; also called NUDT22
# T3 chain: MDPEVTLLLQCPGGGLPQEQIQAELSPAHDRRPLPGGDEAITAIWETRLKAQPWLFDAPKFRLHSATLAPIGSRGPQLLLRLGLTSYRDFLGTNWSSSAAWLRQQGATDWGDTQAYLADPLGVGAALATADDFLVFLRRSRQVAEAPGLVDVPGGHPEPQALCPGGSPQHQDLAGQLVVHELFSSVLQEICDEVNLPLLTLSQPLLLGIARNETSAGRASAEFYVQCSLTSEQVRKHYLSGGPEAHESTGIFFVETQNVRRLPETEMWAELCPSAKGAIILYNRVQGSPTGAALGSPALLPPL
# [3] = target: T4, oxidation resistance 1, transcript variant 1 (human, UniProt Q8N573 90-874, limits assumed); experiment: protein array
# T4 construct: on protein array; also called OXR1
# T4 sequence: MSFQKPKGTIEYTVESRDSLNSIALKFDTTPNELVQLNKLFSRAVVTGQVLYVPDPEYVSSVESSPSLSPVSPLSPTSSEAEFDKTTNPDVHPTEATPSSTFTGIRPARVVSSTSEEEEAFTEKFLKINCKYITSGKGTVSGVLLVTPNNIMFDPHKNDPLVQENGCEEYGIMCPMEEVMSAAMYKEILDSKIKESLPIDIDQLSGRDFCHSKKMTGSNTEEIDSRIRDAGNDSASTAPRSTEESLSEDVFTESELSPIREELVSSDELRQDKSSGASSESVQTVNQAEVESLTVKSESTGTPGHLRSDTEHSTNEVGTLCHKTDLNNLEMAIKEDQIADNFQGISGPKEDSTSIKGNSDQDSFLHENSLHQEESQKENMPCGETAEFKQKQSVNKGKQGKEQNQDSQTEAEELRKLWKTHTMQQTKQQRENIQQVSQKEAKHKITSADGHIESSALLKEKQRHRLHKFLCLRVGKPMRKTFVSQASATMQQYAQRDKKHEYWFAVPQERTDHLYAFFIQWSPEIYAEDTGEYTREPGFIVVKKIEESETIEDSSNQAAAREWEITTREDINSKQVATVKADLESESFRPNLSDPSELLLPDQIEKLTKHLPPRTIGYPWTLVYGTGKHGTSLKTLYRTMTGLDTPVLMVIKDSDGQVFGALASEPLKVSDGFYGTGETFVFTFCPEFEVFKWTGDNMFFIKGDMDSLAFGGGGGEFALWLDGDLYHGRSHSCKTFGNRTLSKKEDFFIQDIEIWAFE
# [4] = target: T5, grancalcin, transcript variant 4 (human, UniProt P28676 1-217); experiment: protein array
# T5 construct: on protein array; also called GCA
# T5 sequence: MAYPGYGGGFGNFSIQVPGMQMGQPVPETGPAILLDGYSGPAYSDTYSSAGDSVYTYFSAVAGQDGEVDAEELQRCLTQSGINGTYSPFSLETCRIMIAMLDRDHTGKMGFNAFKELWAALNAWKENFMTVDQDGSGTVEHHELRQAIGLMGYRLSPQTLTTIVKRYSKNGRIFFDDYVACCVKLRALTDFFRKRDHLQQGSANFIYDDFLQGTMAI
# [5] = target: T6, Rna polymerase iii subunit g (human, UniProt O15318 1-223); experiment: protein array
# T6 construct: on protein array; also called POLR3G
# T6 sequence: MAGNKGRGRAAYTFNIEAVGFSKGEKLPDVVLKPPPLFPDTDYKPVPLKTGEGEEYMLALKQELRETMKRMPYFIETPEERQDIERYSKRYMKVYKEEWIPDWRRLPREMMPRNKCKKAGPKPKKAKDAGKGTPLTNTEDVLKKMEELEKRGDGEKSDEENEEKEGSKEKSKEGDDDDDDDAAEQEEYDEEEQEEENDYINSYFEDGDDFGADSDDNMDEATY
# F-box protein 2 = target: T7, F-box protein 2 (human, UniProt Q9UK22 1-296); experiment: protein array
# T7 construct: on protein array; also called FBXO2
# T7 sequence: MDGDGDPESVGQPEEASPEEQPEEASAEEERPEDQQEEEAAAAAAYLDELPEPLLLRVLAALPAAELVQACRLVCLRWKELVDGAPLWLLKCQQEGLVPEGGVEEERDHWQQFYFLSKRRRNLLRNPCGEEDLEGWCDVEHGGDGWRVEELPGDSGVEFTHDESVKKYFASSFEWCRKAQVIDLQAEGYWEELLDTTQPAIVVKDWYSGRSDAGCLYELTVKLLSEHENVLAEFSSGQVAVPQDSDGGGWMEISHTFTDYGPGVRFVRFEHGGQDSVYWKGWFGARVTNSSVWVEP
# tubulin gamma 1 = target: T8, tubulin gamma 1 (human, UniProt P23258 1-451); experiment: protein array
# T8 construct: on protein array; also called TUBG1
# T8 sequence (P23258 whole entry): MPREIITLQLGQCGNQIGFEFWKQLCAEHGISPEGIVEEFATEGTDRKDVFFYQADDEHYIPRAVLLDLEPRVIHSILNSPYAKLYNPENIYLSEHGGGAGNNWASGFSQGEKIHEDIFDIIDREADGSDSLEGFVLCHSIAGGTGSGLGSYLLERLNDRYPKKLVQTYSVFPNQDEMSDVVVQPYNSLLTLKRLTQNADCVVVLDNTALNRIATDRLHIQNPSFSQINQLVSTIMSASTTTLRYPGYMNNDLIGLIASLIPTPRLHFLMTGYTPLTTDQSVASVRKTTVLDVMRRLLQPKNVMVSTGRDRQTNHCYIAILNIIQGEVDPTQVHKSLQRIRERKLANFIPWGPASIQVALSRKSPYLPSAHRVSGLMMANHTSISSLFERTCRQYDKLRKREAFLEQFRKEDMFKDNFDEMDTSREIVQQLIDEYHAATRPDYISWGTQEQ
# [6] = target: T9, CRK like proto-oncogene, adaptor protein, transcript variant 1 (human, UniProt P46109 1-303); experiment: protein array, with experimental replicate
# T9 construct: on protein array
# T9 sequence (P46109 whole entry, change not shown): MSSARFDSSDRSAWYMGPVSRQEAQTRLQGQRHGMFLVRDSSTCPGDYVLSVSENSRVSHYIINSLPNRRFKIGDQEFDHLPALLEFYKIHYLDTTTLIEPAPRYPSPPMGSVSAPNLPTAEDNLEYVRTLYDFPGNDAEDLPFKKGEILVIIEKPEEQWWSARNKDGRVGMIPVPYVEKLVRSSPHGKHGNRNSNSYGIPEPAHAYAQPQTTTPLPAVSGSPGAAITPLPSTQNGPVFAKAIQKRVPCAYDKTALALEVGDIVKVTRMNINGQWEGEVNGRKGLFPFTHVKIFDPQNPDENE
# [7] = target: T10, sorting nexin 1, transcript variant 1 (human, UniProt Q13596 1-522); experiment: protein array
# T10 construct: on protein array; also called SNX1
# T10 sequence (Q13596 whole entry, change not shown): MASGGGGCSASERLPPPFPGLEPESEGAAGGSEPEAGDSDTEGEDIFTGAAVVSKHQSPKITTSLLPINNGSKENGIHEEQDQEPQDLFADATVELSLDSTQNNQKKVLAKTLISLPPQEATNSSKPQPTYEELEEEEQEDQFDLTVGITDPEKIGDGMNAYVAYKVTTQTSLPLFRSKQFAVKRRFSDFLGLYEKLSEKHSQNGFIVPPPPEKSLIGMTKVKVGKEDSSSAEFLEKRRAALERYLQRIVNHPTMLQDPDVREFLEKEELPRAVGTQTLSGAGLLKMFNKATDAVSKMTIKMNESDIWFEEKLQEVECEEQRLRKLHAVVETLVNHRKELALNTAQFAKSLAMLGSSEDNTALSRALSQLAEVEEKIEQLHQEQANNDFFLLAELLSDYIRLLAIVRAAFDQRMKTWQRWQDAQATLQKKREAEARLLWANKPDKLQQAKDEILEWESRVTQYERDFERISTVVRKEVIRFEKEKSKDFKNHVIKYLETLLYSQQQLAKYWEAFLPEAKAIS
# [8] = target: T11, glucuronidase, beta pseudogene (human); experiment: protein array
# T11 construct: on protein array; also called BC025996.2_frag
# T11 chain: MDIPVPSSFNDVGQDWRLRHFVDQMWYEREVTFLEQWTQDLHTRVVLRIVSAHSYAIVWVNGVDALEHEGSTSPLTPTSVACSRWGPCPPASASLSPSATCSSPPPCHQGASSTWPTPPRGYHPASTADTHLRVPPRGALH
binder,measurement,setting,value
B1,binding result,DEAD-box helicase 53,binds
same,binding result,[1],binds
B2,binding result,[2],binds
B3,binding result,[3],binds
B4,binding result,[4],binds
B5,binding result,[5],binds
B6,binding result,F-box protein 2,binds
same,binding result,tubulin gamma 1,binds
B7,binding result,[6],binds
B8,binding result,[7],binds
B9,binding result,[8],binds
